From publication PMC4682967 come the findings set out here.

For data set [1], the system named is scFv-Fc_(CH3A) of A107 and A108 (K370E/K409W). The data set is described as follows: non-reducing SDS-PAGE of coexpressed chains; scFv-Fc_(CH3A) and Fc_(CH3B) cotransfected at equivalent molar ratio in HEK293F, Protein A purified from supernatant after 6 days; heterodimer and homodimers told apart by mass, band intensities by ImageJ. To be noted: other: non-reducing SDS-PAGE of coexpressed chains.

The subject of data set [2] is scFv-Fc_(CH3A) of A241 (E357N/S364W/K370E). Described as above. The note with it: other: non-reducing SDS-PAGE of coexpressed chains.
Data set [3] has as its system scFv-Fc_(CH3A) of A107_(w/o W-VT) (K370E). Described as above. To be noted: other: non-reducing SDS-PAGE of coexpressed chains.
The test system of data set [4] is scFv-Fc_(CH3A) of A216 (E357G/S364W/K370E). The description is as above. To be noted: other: non-reducing SDS-PAGE of coexpressed chains.
Data set [5] has as its system scFv-Fc_(CH3A) of A109 (K370M/K409W). Described as above. The note with it: other: non-reducing SDS-PAGE of coexpressed chains.
In data set [6] the test system is scFv-Fc_(CH3A) of A109_(w/o W-VT) (K370M). The data set is described as above. The note with it: other: non-reducing SDS-PAGE of coexpressed chains.
The test system of data set [7] is scFv-Fc_(CH3A) of A146 (K370D/K409W). The description is as above. To be noted: other: non-reducing SDS-PAGE of coexpressed chains.
Data set [8] relates to scFv-Fc_(CH3A) of A146_(w/o W-VT) (K370D). The data set is described as above. The note with it: other: non-reducing SDS-PAGE of coexpressed chains.
Data set [9] relates to scFv-Fc_(CH3A) of A205 (E357D/S364W/K370E). Described as above. The note with it: other: non-reducing SDS-PAGE of coexpressed chains.
The test system of data set [10] is scFv-Fc_(CH3A) of A210 (E357A/S364Y/K370E). Described as above. To be noted: other: non-reducing SDS-PAGE of coexpressed chains.
Data set [11] has as its system scFv-Fc_(CH3A) of B121 (D399E/K409W). The data set is described as above. The note with it: other: non-reducing SDS-PAGE of coexpressed chains.
For data set [12], the system named is scFv-Fc_(CH3A) of B135 and B168 (D399L/K409W). The data set is described as above. The note with it: other: non-reducing SDS-PAGE of coexpressed chains.
Data set [13] has as its system scFv-Fc_(CH3A) of B168_(w/o W-VT) (D399L). Described as above. The note with it: other: non-reducing SDS-PAGE of coexpressed chains.
In data set [14] the test system is scFv-Fc_(CH3A) of B212 (K392I/D399L). The description is as above. To be noted: other: non-reducing SDS-PAGE of coexpressed chains.
The test system of data set [15] is scFv-Fc_(CH3A) of B240 (K392S/K409R/D399L). Described as above. To be noted: other: non-reducing SDS-PAGE of coexpressed chains.
Data set [16] concerns scFv-Fc_(CH3A) of B215 (K392R/K409R/D399L). The data set is described as above. The note with it: other: non-reducing SDS-PAGE of coexpressed chains.
Data set [17] relates to scFv-Fc_(CH3A) of B235 (K392C/D399L). Described as above. The note with it: other: non-reducing SDS-PAGE of coexpressed chains.
For data set [18], the system named is scFv-Fc_(CH3A) of B239 (K392L/D399L). The data set is described as above. To be noted: other: non-reducing SDS-PAGE of coexpressed chains.
Data set [19] relates to scFv-Fc_(CH3A) of B256 (K392N/D399L). The data set is described as above. The note with it: other: non-reducing SDS-PAGE of coexpressed chains.
Data set [20] has as its system scFv-Fc_(CH3A) of W-VT (K409W). The description is as above. To be noted: other: non-reducing SDS-PAGE of coexpressed chains.
In data set [21] the target is human neonatal Fc receptor (FcRn) (human) (UniProt P55899). The data set is described as follows: SPR; human FcRn coated on the chip at approximately 1,000 response units; serially diluted Fc proteins applied; pH 6.0; mean ± SD of two independent experiments, at least 5 data sets each. For orientation: Surface plasmon resonance follows binding to a sensor surface in real time, without labels.

As for Fc_(CH3B) of A107 (E357N/D399V/F405T), in [1], the heterodimer yield (%) turned out to be 93.4%.

As to “Fc_(CH3B) of A107_(w/o W-VT), A216 and A241 (E357N)”, the heterodimer yield (%) in data set [2] amounted to 81%; in data set [3] it was 78.2%; in data set [4] it was 80.3%.

For the substance “Fc_(CH3B) of A108 (E357I/S364T/D399V/F405T)”, the heterodimer yield (%) in [1] stood at 70.5%.

As for “Fc_(CH3B) of A109 (E357M/S364W/D399V/F405T)”, in data set [5], the heterodimer yield (%) was found to be 90.5%.

As to “Fc_(CH3B) of A109_(w/o W-VT) (E357M/S364W)”, the heterodimer yield (%) in data set [6] amounted to 61.6%.

As for Fc_(CH3B) of A146 (E357M/D399V/F405T), in data set [7], the heterodimer yield (%) is 74.5%.

Turning to Fc_(CH3B) of A146_(w/o W-VT) (E357M), in data set [8], the heterodimer yield (%) is 71%.

In the case of Fc_(CH3B) of A205 (E357N/K370R), in data set [9], the heterodimer yield (%) was 88.8%.

Consider Fc_(CH3B) of A210 (E357N/K370H), for which, in [10], the heterodimer yield (%) came out at 80.8%.

For the substance Fc_(CH3B) of B121 (K392E/D399V/F405T), in [11], the heterodimer yield (%) stood at 73.3%.

Consider “Fc_(CH3B) of B135 (K392S/K409L/D399V/F405T)”, for which the heterodimer yield (%) in [12] came to 67.8%.

Regarding “Fc_(CH3B) of B168 (K392G/K409M/D399V/F405T)”, the heterodimer yield (%) in data set [12] came to 77.7%.

For “Fc_(CH3B) of B168_(w/o W-VT) (K392G/K409M)”, the heterodimer yield (%) in [13] worked out at 60.9%.

“Fc_(CH3B) of B212 and B240 (D399G/K392G/K409M)”: the results for the heterodimer yield (%) in [14] and in data set [15] were 65.3% and 83.3%, respectively.

Turning to Fc_(CH3B) of B215 (D399W/K392G/K409M), the heterodimer yield (%) in data set [16] was 78.1%.

Consider Fc_(CH3B) of B235 (D399C/K392G/K409M), for which, in [17], the heterodimer yield (%) came out at 89.4%.

Take Fc_(CH3B) of B239 (D399S/K392G/K409M): in [18], the heterodimer yield (%) is 76.3%.

As for Fc_(CH3B) of B256 (D399V/K392G/K409M), the heterodimer yield (%) in [19] came to 79.4%.

Turning to Fc_(CH3B) of W-VT (D399V/F405T), the heterodimer yield (%) in data set [20] stood at 60.8%.

Regarding “wild-type human IgG1 Fc homodimer (Fc-WT) (domain or fragment)”, in data set [21], the Kd – broadly, the constant that tells how readily two partners part at equilibrium – was found to be 35.6 nM; the koff (as a rule, the rate constant with which the complex falls apart) amounted to 5.83e-05 s⁻¹; the kon (as a rule, the rate constant with which the complex forms) worked out at 1640 M⁻¹ s⁻¹.
